Patent US20120171123A1, “USES AND COMPOSITIONS FOR TREATMENT OF RHEUMATOID ARTHRITIS” (priority 2006, published 2012)

Tests used:
[1] = tested on: patients with early vs. long-standing RA; assay: Safety of adalimumab in global clinical trials, early vs long-standing RA (serious adverse event rates, demyelinating disease, lymphoma)
Text: Study J was a 2-year randomized controlled trial in patients with early RA (disease duration<3 years). Participants in these clinical trials and in other phase Mb studies, were routinely evaluated for safety. Reports of serious adverse events (SAE) were tabulated using MedDRA coding by events per 100-patient-years (E/100PY). SAE rates were compared with respect to disease duration between patients with early (<3 yrs) and long-standing RA.

[2] = tested on: patients with long-standing RA; assay: Study I open-label extension (adalimumab 40 mg eow + MTX): ACR response; assay type: in vivo, human; conditions: 5 years, observed
Procedure: 217 patients who completed the blinded period and participated in the extension trial for a minimum of 6 months were allowed to adjust MTX and/or corticosteroid dosages at the discretion of the principal investigators. Dose tapering was conducted according to standard medical practice with respect to controlling disease activity
Demographic data, age, gender, disease duration, rheumatoid factor and changes in TJC, SJC, CRP, DAS28, HAQ and ACR responses were analysed. Baseline demographics and disease characteristics as well as efficacy measures at last visit (ACR 20/50/70, DAS28, HAQ) were compared between the groups. All patients, including those who discontinued from the trial, were evaluated
Patients were eligible to enroll in Study I if they met ACR criteria for diagnosis of RA. […] Efficacy outcomes were assessed at pre-specified intervals as observed data. Treatment time was calculated beginning with the first subcutaneous injection of adalimumab at any dose, excluding time on placebo. Improvements in signs and symptoms of RA were evaluated for ACR20, ACR50, and ACR70 criteria, 28-joint count Disease Activity Score (DAS28) using the CRP-based formula, and Health Assessment Questionnaire (HAQ). Patients with changes in dosage of MTX or corticosteroids were evaluated for at least 6 months; these patients were eligible for the extension study for at least 6 months and were eligible for discretionary dose tapering. Patients were monitored for adverse events (AEs) during the entire length of the study, from signed informed consent through last visit.

[3] = tested on: patients with long-standing RA; assay: Study 4 (open-label extension, adalimumab 40 mg eow + MTX): ACR response and Major Clinical Response; assay type: in vivo, human
Procedure: The following study was performed to evaluate sustained remission in patients with RA treated with adalimumab and mtx. The study was an open-label extension study, where the last visit of the preceding study was used as the screening visit for Study 4. The study design for Study 4 is described in FIG. 12. The percentage of patients remaining on treatment over time from the first dose of adalimumab remained relatively constant. 846 patients enrolled over time.
ACR response rates and Major Clinical Response (MCR) remained constant through the fourth year of adalimumab treatment. Major Clinical Response (MCR) was defined as patients maintaining an ACR70 response for at least 6 continuous months over a 2-year period. […] At the end of the 4 year time period, 79% of patients had maintained an ACR20, 61% maintained an ACR50 response, and 38% maintained an ACR 70 response.
After these trials, patients were eligible to enroll in two separate OLE studies: Study 4 and Study 5. Patients were evaluated for efficacy and safety every 3 months.
Efficacy outcomes were evaluated as observed data: DAS28; ACR 20/50/70; Tender Joint Count (TJC); Swollen Joint Count (SJC); and HAQ Disability Index. Baseline demographics and disease characteristics were similar in both Study 4 and Study 5 consistent with moderate to severe RA, as shown below in Table 64: […]

[4] = tested on: patients with RA; assay: RAPID (routine Apgar-like patient index datasheet) score in 4 adalimumab clinical trials; assay type: in vivo, human; conditions: for RAPID (R326), Difference: baseline vs endpoint
Procedure: All 1,391 patients in these trials were evaluated in this study. The RAPID index is based on patient self-report data on a Health Assessment Questionnaire (HAQ), recalibrated to 0-10, based on the following criteria: physical function (0-3): 0=0-0.25, 1=0.26-0.75, 2=0.76-1.5, and 3=1.51-3.0; pain visual analog scale (VAS) (0-3): 0=0-10, 1=11-30, 2=31-60, and 3=61-100; and patient's global status VAS (0-4): 0=0-10, 1=11-25, 2=26-50, 3=51-75, and 4=76-100. All patients were classified at baseline as having a DAS28<5.1 or ≧5.1 or RAPID <5.0 or ≧5.0, the higher values for each indicating severe disease. DAS28 was calculated using swollen joint count, tender joint count, patient's global assessment of disease activity and C-reactive protein (CRP) concentration. Spearman rank correlations and box plots to compare RAPID scores with DAS28 were also analyzed.
Several rescalings of the physical function, pain, and patient's global assessment scales were calculated. The physical function scale is scored 0-3, and was rescaled to 0-3. The pain visual analog scale (VAS) is scored 0-10 and was also rescaled to 0-3. The global VAS is scored 0-10 and was rescaled to 0-4. Thus, the total of the 3 scores ranges from 0-10. Scores were calculated for both continuous and categorical indices. The DAS28 was calculated from the SJC, TJC, patient's global score, and C-reactive protein.

[5] = All Trials adalimumab (4870 PY), data for registration
[6] = Combined (long-standing + early RA)
[7] = Early RA, Study J (N=542; 917 PY)
[8] = Early RA, Study J, N (Exposure) 542 (917)
[9] = Long-standing RA, 31-Aug.-2004 (N=10,050; 12,066 PY)
[10] = Long-standing RA, 31-Aug.-2004, N (Exposure) 10,050 (12,066)
[11] = Study 2 (adalimumab monotherapy)
[12] = Study K (adalimumab with other DMARDs)

For “adalimumab: human anti-TNF mAb (HUMIRA, Abbott Laboratories), described in U.S. Pat. No. 6,090,382 as D2E7”, the Malignancies [1, 5] was 0.006 N/PY, the Pneumonia [1, 5] was 0.008 N/PY and the TB [1, 5] was 0.003 N/PY. The “Total lymphomas, Expected” value [1, 6] was 5.16 cases, the “Total lymphomas, Observed” value [1, 6] was 15 cases and the “Total lymphomas, SIR” value [1, 6] was 2.91. The “Total lymphomas, Expected” value ([1]; Early RA) was 0.37 cases, the “Total lymphomas, Observed” value ([1]; Early RA) was 0 cases and the “Total lymphomas, SIR” value ([1]; Early RA) was 0. The cases of lymphoma ([1]; Early RA) was “No cases”, the “Congestive Heart Failure rate” value [1, 7] was 0.11 E/100PY and the “Demyelinating Diseases rate” value [1, 7] was 0.00 E/100PY. The Lymphoma rate [1, 7] was 0.00 E/100PY, the Pancytopenia rate [1, 7] was 0.00 E/100PY and the “Pneumonia (serious) rate” value [1, 7] was 0.55 E/100PY. For the same substance, the “SLE/Lupus-like Syndrome rate” value [1, 7] was 0.00 E/100PY, the “Septic Arthritis rate” value [1, 7] was 0.22 E/100PY and the “Serious Infections rate” value [1, 7] was 1.85 E/100PY. The Tuberculosis rate [1, 7] was 0.11 E/100PY, the “Urinary Tract Infections (serious) rate” value [1, 7] was 0.11 E/100PY and the “Cases of Guillain-Barre syndrome” value [1, 8] was 0 cases. For the same substance, the “Cases of Multiple sclerosis” value [1, 8] was 0 cases, the “Cases of Non-specific demyelination” value [1, 8] was 0 cases and the “Hodgkin's, Expected” value ([1]; Long-standing RA) was 0.36 cases. The “Hodgkin's, Observed” value ([1]; Long-standing RA) was 1 cases, the “Hodgkin's, SIR” value ([1]; Long-standing RA) was 2.78 and the “NHL, Expected” value ([1]; Long-standing RA) was 4.32 cases. For the same substance, the “NHL, Observed” value ([1]; Long-standing RA) was 14 cases, the “NHL, SIR” value ([1]; Long-standing RA) was 3.24 and the “Total lymphomas, Expected” value ([1]; Long-standing RA) was 4.68 cases. The “Total lymphomas, Observed” value ([1]; Long-standing RA) was 15 cases, the “Total lymphomas, SIR” value ([1]; Long-standing RA) was 3.21 and the “Congestive Heart Failure rate” value [1, 9] was 0.26 E/100PY. For the same substance, the “Demyelinating Diseases rate” value [1, 9] was 0.07 E/100PY, the Lymphoma rate [1, 9] was 0.11 E/100PY and the Pancytopenia rate [1, 9] was 0.02 E/100PY. The “Pneumonia (serious) rate” value [1, 9] was 0.87 E/100PY, the “SLE/Lupus-like Syndrome rate” value [1, 9] was 0.06 E/100PY and the “Septic Arthritis rate” value [1, 9] was 0.46 E/100PY. For the same substance, the “Serious Infections rate” value [1, 9] was 4.79 E/100PY, the Tuberculosis rate [1, 9] was 0.24 E/100PY and the “Urinary Tract Infections (serious) rate” value [1, 9] was 0.38 E/100PY. The “Cases of Guillain-Barre syndrome” value [1, 10] was 2 cases, the “Cases of Multiple sclerosis” value [1, 10] was 4 cases and the “Cases of Non-specific demyelination” value [1, 10] was 2 cases. The “lymphoma combined SIR” value ([1]; all RA patients in adalimumab clinical trials, 95% CI 1.63-4.80) was 2.91, the “cases of demyelinating diseases” value ([1]; early RA (Study J)) was “No cases” and the “cases of demyelinating diseases” value ([1]; long-standing RA, through Aug. 31, 2004) was “Eight”. The cases of lymphoma ([1]; long-standing RA, through August 2004) was “Fifteen”, the ACR20 [2] was 76% and the ACR50 [2] was 64%. For the same substance, the ACR70 [2] was 39%, the “patients maintaining ACR20” value ([3]; end of 4 years) was 79% and the “patients maintaining ACR50” value ([3]; end of 4 years) was 61%. For the same substance, the “patients maintaining ACR70” value ([3]; end of 4 years) was 38%, the “patients achieving Major Clinical Response (ACR70 ≧6 continuous months)” value ([3]; patients with at least 3 years of exposure) was 31% and the “RAPID (R326), Endpoint” value ([4]; Study 1 (adalimumab with MTX)) was 3.86. For the same substance, the “RAPID (R326), Difference” value ([4]; Study 1 (adalimumab with MTX)) was 3.22, the “RAPID (R326), Endpoint” value [4, 11] was 5.88 and the “RAPID (R326), Difference” value [4, 11] was 2.70. The “RAPID (R326), Endpoint” value ([4]; Study I (adalimumab with MTX)) was 3.84, the “RAPID (R326), Difference” value ([4]; Study I (adalimumab with MTX)) was 3.43 and the “RAPID (R326), Endpoint” value [4, 12] was 4.22. For the same substance, the “RAPID (R326), Difference” value [4, 12] was 2.79.
